B1: CIS43 human monoclonal antibody (antibody, V domains shown)
VH: QVQLVQSGAEVKKPGASVKVSCKASGYTFTSYAIHWVRQAPGQRLEWMGWIKAGNGNTRYSQKFQDRVTITRDTSTTTAYMELSSLRSEDTAVYYCALLTVLTPDDAFDIWGQGTMVTVSS
VL: not shown
notes: the secreted chain begins at QVQLVQ; light chain of CIS43; IgG1 by the printed constant region; also called rCIS43; CIS43 IgG; source: Expi293 (GenScript) or CHO cells, purified (protein-A column; Superdex200 before BLI)
B2: CIS43 expressed in vivo from an AAV vector (CIS43-AAV), in mouse serum (antibody, V domains shown)
VH: B1 VH
VL: not shown
notes: synthesised and cloned into the VIP vector; human IgG1 heavy chain constant region of the VIP expression vector; light chain variable region of CIS43, as in the light chain of Dm1; human kappa light chain constant region of the VIP expression vector; Heavy and light chain are made from one transcript, separated by an F2A self-processing peptide; also called AAV-expressed CIS43; source: expressed …

Experiments:
[1] = target: T1, recombinant Plasmodium falciparum circumsporozoite protein (rPfCSP) (Plasmodium falciparum 3D7, UniProt Q7K740); assay: BLI; Octet RED384; rPfCSP on the sensor, purified IgG at 2, 1, 0.5, 0.25, 0.125 ug/mL; 1:1 model; apparent affinity; conditions: both partners purified
T1 construct: full-length circumsporozoite (CS) protein of 3D7, a clone of the NF54 strain of P. falciparum; also called CS protein

[2] = target: T1, recombinant Plasmodium falciparum …; assay: BLI; Octet RED384; rPfCSP on the sensor, mouse serum 8 weeks after AAV administration with the mAb at 2, 1, 0.5, 0.25, 0.125 ug/mL; 1:1 model; apparent affinity; conditions: one partner purified

T1 sequence (Q7K740 19-374): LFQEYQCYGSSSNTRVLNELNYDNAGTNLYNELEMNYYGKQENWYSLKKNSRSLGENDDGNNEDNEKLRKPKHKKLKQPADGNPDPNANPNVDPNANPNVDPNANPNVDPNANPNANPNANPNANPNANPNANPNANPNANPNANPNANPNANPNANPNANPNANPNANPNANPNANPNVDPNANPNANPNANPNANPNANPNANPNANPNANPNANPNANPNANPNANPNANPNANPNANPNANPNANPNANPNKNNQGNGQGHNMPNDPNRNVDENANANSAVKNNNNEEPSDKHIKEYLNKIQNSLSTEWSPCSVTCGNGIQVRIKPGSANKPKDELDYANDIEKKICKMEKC

Binder	Kd [1] [nM]	Kd [2] [nM]
B1	5	
B2		2.3
